Where “and” joins values, the source holds several entries; their conditions need not be identical. Equal entries are not always repeated.
Legend:
Settings in all cases: remark: other sources report otherwise
[1] = molecular target: SARS-CoV-2 full length spike protein, V367F mutant (SARS-CoV-2), P0DTC2
[2] = molecular target: SARS-CoV-2 full length spike protein, V483A mutant (SARS-CoV-2), P0DTC2
[3] = molecular target: SARS-CoV-2 full length spike protein, V483A mutant, expressed on the surface of CHO cells (SARS-CoV-2), P0DTC2
[4] = molecular target: SARS-CoV-2 full length spike protein, D614G mutant (SARS-CoV-2), P0DTC2

B1: antibody 269 (antibody, V domains shown)
VH: QLQLQESGPGLVKPSETLSLTCTVSGGSISSSSYYWGWIRQPPGKGLEWIGNIYYSGSTYYNPSLKSRVTISVDTSKNQFSLKLSSVTAADTAVYYCAGEELDIVATIYSSRYYYYGMDVWGQGTTVTVSS
VL: QSALTQPASVSGSPGQSITISCTGTSSDVGGYNYVSWYQQHPGKAPKLMIYEVSNRPSGVSNRFSGSKSGNTASLTISGLQAEDEADYYCSSYTSTSTLVFGGGTKLTVL
**Q.** With B1 as the binder, how does the median fluorescence intensity, fold over isotype control (fold over isotype) [1] read?
**A.** 25.4

**Q.** What about the median fluorescence intensity, fold over isotype control (fold over isotype) [2] of the same binder?
**A.** 22.8 and 11.6

B2: antibody 279 (antibody, V domains shown)
VH: EVQLLESGGGLVQPGGSLRLSCAASGFTFSSYAMSWVRQAPGKGLEWVSTISGSGGNTYYADSVKGRFTISRDNSKNTLYLQMNSLRAEDTAVYYCAKDLFQGLYYGSGEFDYWGQGTLVTVSS
VL: QSALTQPASVSGSPGQSITISCTGTSSDVGAYNYVSWYQQHPGKAPKLMIYGVSNRPSGVSNRFSGSKSGNTASLTISGLQAEDEADYYCSSYTSSSTRVFGTGTKVTVL
**Q.** For B2, which median fluorescence intensity, fold over isotype control (fold over isotype) [1] is on record?
**A.** 13.4

**Q.** And the median fluorescence intensity, fold over isotype control (fold over isotype) [2]?
**A.** 11.8 and 8.2

B3: antibody 315 (antibody, V domains shown)
VH: QVQLVQSGSELKKPGASVKLSCQASGYSFTNHAMNWVRQAPGQGLEWMGWINTNTGNPTYAQGFTGRFVFSLDTSVSTTYLHISSLKAEDTAVYYCARASARPGVATNLDFWGQGTLVVVSS
VL: DIQMTQSPSSLSASVGDRVTITCRASQNIDNYLNWYQQKPGKAPKLLIYAASRLHSGVPSRFSGSGSGTDFTLIISSLQPEDLATYYCQQSYSNPLTFGPGTKVDIR
**Q.** For B3, which median fluorescence intensity, fold over isotype control (fold over isotype) [3] is on record?
**A.** 8.39

B4: antibody 322 (antibody, V domains shown)
VH: EVQLVESGGGLVQPGGSLRLSCAASGFTFSSYWMSWVRQAPGKGLEWVANIKQDGSEKYYVDSVKGRFTISRDNAKNSLYLQMNSLRAEDTAVYYCARDEDVAAALDYWGQGTLVTVSS
VL: SYVLTQPPSVSVAPGKTARITCGGNNIGSKSVHWYQQKPGQAPVLVIYYDSDRPSGIPERFSGSNSGNTATLTISRVEAGDEADYYCQVWDSSSDHPERVFGGGTKLTVL
**Q.** With B4 as the binder, how does the median fluorescence intensity, fold over isotype control (fold over isotype) [3] read?
**A.** 4.95

B5: antibody 325 (antibody, V domains shown)
VH: QVQLQESGPGLVKPSQTLSLTCTVSGGSISGGGYYWSWIRQHPGKGLEWIGYIYYSGSTYYNPSLQSRVTISVDTSKNQFSLKLSSVTAADTAVYYCARVGTSSVWYFDYWGQGTLVTVSS
VL: QSALTQPRSVSGSPGQSVTISCTGTSSDVGGYNYVSWYQQHPGKAPKLMIYDVTKRPSGVPDRFSGSKSGNTASLTISGLQAEDEADYYCSSYAGSWVFGGGTKLTVL
**Q.** With B5 as the binder, how does the median fluorescence intensity, fold over isotype control (fold over isotype) [3] read?
**A.** 1.17

B6: antibody 362 (antibody, V domains shown)
VH: QVQLVESGGGVVQPGRSLRLSCAASGFNLSNYAMHWVRQASGKGLEWVSLISYDGSVKYYTDSVKGRFTVSGDNSKNTLFLQMNSLRPDDSALYYCVRGGVSGPNSFDMWGQGTTVTVSS
VL: DVVMTQSPLSLPVTLGQPATISCRSSQSLVYSDGNTYVNWFQQRPGQSPRRLIYQVSIRASGVPDRFSGSGSGTDFALKISRVEAEDVGVYYCMQGTHWPVTFGQGTKVEIK
**Q.** For B6, which median fluorescence intensity, fold over isotype control (fold over isotype) [3] is on record?
**A.** 10.3

B7: antibody 521 (antibody, V domains shown)
VH: QVQLVESGGGVVQPGRSLRLSCAASGFTFSSYGMHWVRQAPGKGLEWVAVIWYDGSNKYYADSVKGRFTISRDNSKNTLYLQMNSLRAEDTAVYYCAREGNDYGDYGEWELLGYFDYWGQGTLVTVSS
VL: SYELTQPPSVSVSPGQTARITCSGDALPKKYAYWYQQKSGQAPVLVIYEDSKRPSGIPERFSGSSSGTMATLTISGAQVEDEADYYCYSTDSSGNHRRVFGGGTKLTVL
**Q.** For B7, which median fold over isotype (fold over isotype) [1] is on record?
**A.** 1.68

**Q.** What about the median fold over isotype (fold over isotype) [4] of the same binder?
**A.** 2.68

**Q.** What about the median fold over isotype (fold over isotype) [2] of the same binder?
**A.** 2.72 and 5.78

— patent publication US20210292393A1
